± gives the half width of the 95% confidence interval.
Columns and labels:
[1] = folding stability dG unfold from trypsin proteolysis; higher = more stable
Outline: (§1)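 K50 was inferred by Bayesian fitting of sequencing counts obtained after protease digestion of designed mini-proteins. Unfolding free energy was derived by comparison with a sequence-predicted unfolded-state K50 and a shared folded-state K50, for each protease or both combined. The mini-proteins were under 80 residues, had no cysteine, were carried in a PA-tagged cDNA display construct, and were kept only if AlphaFold2 dimer inter-PAE exceeded 15.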

[2] = folding stability dG unfold (combined trypsin and chymotrypsin); higher = more stable
Outline: as §1

[3] = folding stability dG unfold from chymotrypsin proteolysis; higher = more stable
Outline: as §1

| Sequence | folding stability dG unfold [1] | folding stability dG unfold [2] | folding stability dG unfold [3] |
| --- | --- | --- | --- |
| SAGGSDNKPFRIEPTGVDSVEANPDGMVEIEWRFRLPNGYVLTWRETINPKNGKPSIEPTLVPPGESAGGSA [r2_321_TrROS] | 0.816 ± 0.079 kcal/mol | 0.902 ± 0.085 kcal/mol | 0.722 ± 0.18 kcal/mol |
| SAGGSDSLVTLERVEVTELEEFEEDDRPFLVKRTYTIEKVVTTDPKTGKVTTETTVTSKEEVIPPELNSAGG [r13_810_JUSTAS] | 0.807 ± 0.031 kcal/mol | 0.874 ± 0.084 kcal/mol | 0.801 ± 0.18 kcal/mol |
| SAGGSDVKTYTFVGIDPETGELVETTFRVTPLVPPVPVSVSVSLTLDVDPDGNLHLSLSVSVELGGSAGGSA [r2_326_TrMRF] | 3.21 ± 0.11 kcal/mol | 4.37 ± 0.12 kcal/mol | 4.74 ± 0.081 kcal/mol |
| SAGGSEAEIVSVEFDEETGTISVLVRNSDGSLYRAEIRFERLPDGSLLVTIKVTLPDGKELTFVFPSAGGSA [r2_488_TrROS_Hall] | 3.94 ± 0.11 kcal/mol | 5.78 ± 0.19 kcal/mol | 5.77 ± 0.085 kcal/mol |
| SAGGSEGMTVTELVKPPDSDEVLYVATDSAGNTFTLPGSLVKEALENGKTVEAPRPDGTAATLVLRSAGGSA [r2_301_JUSTAS] | 2.25 ± 0.4 kcal/mol | 3.1 ± 0.34 kcal/mol | 3.5 ± 0.2 kcal/mol |
| SAGGSEILKKLFPNVKKIEIEVEEVEVKYSEEEKKANPNKKVKVEVKVKVKIKIKIELEFDKNGKLSAGGSA [r2_404_TrROS_Hall] | 3.64 ± 0.19 kcal/mol | 3.09 ± 0.61 kcal/mol | 1.92 ± 0.19 kcal/mol |
| SAGGSEIRVEYDPSTGELRVLIVLPDGSVILKTVRVEPIDPGIAPDGSPIGAAVSISVEIVPPGELSAGGSA [r2_195_TrMRF] | 3.23 ± 0.1 kcal/mol | 3.39 ± 0.087 kcal/mol | 3.5 ± 0.037 kcal/mol |
| SAGGSEKKVLVLKFRHPENDKPLFSVRIVLEKPPEDSYKAKIELLDLPEDYVLSPEAIKAILEALKSAGGSA [r2_7_TrMRF] | 2.05 ± 0.036 kcal/mol | 2.3 ± 0.11 kcal/mol | 2.58 ± 0.11 kcal/mol |
| SAGGSELENMSLEELLARAEELARELAEETGRTVTVTVEVRVRLPDGSTRTFRFTVTLTVLREEDLSAGGSA [r2_157_TrROS_Hall] | 3.93 ± 0.12 kcal/mol | 4.519 ± 0.041 kcal/mol | 4.739 ± 0.04 kcal/mol |
| SAGGSETVRVEVEVELENGYRVRVEMEFDLETKEMTMRVEVEPVLELSPEELEKLKKLLEELGIEVSAGGSA [r2_304_TrROS_Hall] | 2.91 ± 0.27 kcal/mol | 3.12 ± 0.17 kcal/mol | 3.43 ± 0.11 kcal/mol |
| SAGGSEVKIVKIESVEIEEENGFLRIKVRATLKFYDKETGELVEEKEVELEVTLKNGKKLTFKIKASAGGSA [r2_271_TrROS_Hall] | 3 ± 0.23 kcal/mol | 3.12 ± 0.58 kcal/mol | 3.12 ± 0.086 kcal/mol |
| SAGGSFGIEIEFHGNGFVIEMFNPETDTINTMRFKFDPDGQFTEMEMETIPIPPPPPPEKDENGKESAGGSA [r2_375_TrROS] | 2.27 ± 0.16 kcal/mol | 2.94 ± 0.19 kcal/mol | 3.16 ± 0.12 kcal/mol |
| SAGGSFIKITTKLPNRKIEIPIPDAEIEVEGNTVTITFPPGNAEEVKKAVLEASDEVEITEVKIIDESAGGS [r8_490_JUSTAS] | -0.107 ± 0.04 kcal/mol | 0.557 ± 0.087 kcal/mol | 0.871 ± 0.026 kcal/mol |
| SAGGSFLVPTSSMEEAEEIKNAVLAGEPVTVTPPDGVPVTVKAKSVEVDPETGKVRIIDPSGEKLALSAGGS [r16_254_JUSTAS] | 0.201 ± 0.14 kcal/mol | 0.379 ± 0.1 kcal/mol | 0.414 ± 0.095 kcal/mol |
| SAGGSFWVFVIEISVKFEQYGDPDGNWKFEIEKVDVKITEIIPIPPEMMDKLREAKAEGMEPEEILSAGGSA [r2_327_TrROS] | 1.65 ± 0.15 kcal/mol | 3.09 ± 0.39 kcal/mol | 3.49 ± 0.11 kcal/mol |
| SAGGSGDPNAAPVVVKVTIDITRPTADDSYVTSPVELTLLESEVDEFLAELEKEPDLELKVEVTLESAGGSA [r2_270_JUSTAS] | 0.829 ± 0.063 kcal/mol | 1.07 ± 0.11 kcal/mol | 1.25 ± 0.026 kcal/mol |
| SAGGSGKKVKIKINIVVVFPPGDPDLAKEIAKWFARTIARELQAQGFEDIKDIEIRVHVIPPNQPGFSAGGS [r16_289_TrROS] | 3.11 ± 0.094 kcal/mol | 3.44 ± 0.12 kcal/mol | 3.604 ± 0.035 kcal/mol |
| SAGGSGKVIEIPIELPEDKTITLRLDPETGKAVVEAEENVPLEKVIEAAKKIFEENGFELNGLDISSAGGSA [r2_497_TrMRF] | 0.788 ± 0.032 kcal/mol | 0.782 ± 0.12 kcal/mol | 0.725 ± 0.092 kcal/mol |
